Data on one molecule can be found in US20180355060A1 (published 2018).

The target in test [1] is T1, human transglutaminase type 2 (TG2) (human, UniProt P21980 1-687).
T1 sequence: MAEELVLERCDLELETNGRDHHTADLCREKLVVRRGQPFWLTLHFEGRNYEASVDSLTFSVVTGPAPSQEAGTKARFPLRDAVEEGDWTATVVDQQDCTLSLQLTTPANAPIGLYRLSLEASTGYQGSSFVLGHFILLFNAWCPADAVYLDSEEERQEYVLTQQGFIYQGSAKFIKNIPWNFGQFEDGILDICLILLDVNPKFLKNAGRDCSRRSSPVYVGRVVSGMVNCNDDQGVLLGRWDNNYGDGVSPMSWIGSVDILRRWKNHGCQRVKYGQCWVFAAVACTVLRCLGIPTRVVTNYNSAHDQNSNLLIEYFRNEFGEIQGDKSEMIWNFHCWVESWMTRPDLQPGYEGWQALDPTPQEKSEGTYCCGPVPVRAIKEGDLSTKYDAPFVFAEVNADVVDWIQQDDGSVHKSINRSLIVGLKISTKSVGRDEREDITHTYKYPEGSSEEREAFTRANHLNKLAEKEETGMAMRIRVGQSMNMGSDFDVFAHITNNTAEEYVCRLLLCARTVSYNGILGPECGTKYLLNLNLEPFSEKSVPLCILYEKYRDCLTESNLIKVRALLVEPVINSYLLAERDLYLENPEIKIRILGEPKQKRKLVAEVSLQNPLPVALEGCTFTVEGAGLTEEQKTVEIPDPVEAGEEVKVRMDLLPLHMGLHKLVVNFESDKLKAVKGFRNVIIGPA
As to the kind of experiment: cell-based or functional assay.

The next test has as its target T2, rat TG2 (rat, UniProt Q9WVJ6 1-686).
T2 sequence: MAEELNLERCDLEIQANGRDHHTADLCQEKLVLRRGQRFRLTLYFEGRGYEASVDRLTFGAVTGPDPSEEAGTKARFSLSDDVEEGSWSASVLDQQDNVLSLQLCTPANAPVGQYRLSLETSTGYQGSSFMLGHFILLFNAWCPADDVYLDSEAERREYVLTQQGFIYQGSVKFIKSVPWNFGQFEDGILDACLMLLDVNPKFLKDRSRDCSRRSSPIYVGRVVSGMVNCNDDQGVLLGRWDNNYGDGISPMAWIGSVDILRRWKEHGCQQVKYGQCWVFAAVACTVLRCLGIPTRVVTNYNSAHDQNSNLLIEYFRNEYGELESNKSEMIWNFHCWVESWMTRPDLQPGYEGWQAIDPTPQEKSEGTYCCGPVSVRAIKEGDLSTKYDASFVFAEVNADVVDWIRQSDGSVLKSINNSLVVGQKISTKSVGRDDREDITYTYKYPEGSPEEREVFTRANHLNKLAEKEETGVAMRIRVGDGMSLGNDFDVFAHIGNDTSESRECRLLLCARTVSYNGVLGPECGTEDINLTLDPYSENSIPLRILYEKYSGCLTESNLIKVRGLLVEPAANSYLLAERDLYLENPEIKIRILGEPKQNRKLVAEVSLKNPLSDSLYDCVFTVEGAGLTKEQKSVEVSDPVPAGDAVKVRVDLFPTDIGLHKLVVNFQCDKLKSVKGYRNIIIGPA
As to the kind of experiment: western blot and ELISA. (A western blot detects proteins with antibodies after separation by electrophoresis.)

The target in the next test is T3, mouse TG2 (mouse, UniProt P21981 1-686).
T3 sequence: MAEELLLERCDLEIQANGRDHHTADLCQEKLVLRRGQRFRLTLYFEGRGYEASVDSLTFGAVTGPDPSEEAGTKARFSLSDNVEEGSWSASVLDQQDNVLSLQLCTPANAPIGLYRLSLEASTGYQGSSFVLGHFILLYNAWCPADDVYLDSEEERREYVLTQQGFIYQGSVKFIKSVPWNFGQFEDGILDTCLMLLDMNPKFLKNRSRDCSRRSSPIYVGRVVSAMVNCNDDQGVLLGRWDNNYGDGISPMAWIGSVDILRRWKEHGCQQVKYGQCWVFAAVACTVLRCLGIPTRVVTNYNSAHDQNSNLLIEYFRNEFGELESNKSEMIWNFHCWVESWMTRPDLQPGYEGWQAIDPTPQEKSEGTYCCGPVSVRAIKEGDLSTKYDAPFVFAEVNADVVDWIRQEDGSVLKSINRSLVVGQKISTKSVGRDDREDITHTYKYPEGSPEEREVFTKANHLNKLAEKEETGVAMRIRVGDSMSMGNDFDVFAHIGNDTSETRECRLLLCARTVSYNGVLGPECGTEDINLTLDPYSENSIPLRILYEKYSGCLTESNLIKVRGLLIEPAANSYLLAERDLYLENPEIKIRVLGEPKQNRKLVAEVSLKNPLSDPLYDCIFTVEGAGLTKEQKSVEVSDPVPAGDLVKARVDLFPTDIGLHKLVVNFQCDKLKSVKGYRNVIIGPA
As to the kind of experiment: western blot and ELISA.

B1: AB1 murine monoclonal anti-TG2 antibody (antibody, V domains shown)
VH: EVQLVESGGGLVKPGGSLKLSCAASGFTLSSSAMSWVRQTPDRRLEWVATISVGGGKTYYPDSVKGRFTISRDNAKNTLYLQMNSLRSEDTAMYYCAKLISLYWGQGTTLTVSS
VL: DIKMTQSPSSMYASLGERVTITCKASQDINSYLTWFQQKPGKSPKTLIYRTNRLFDGVPSRFSGSGSGQDFFLTISSLEYEDMGIYYCLQYDDFPYTFGGGTKLEIK
notes: they differ only in the first residues; also called AB1 IgG; mAB003
For B1, the “IC50, 3H-putrescine incorporation TG activity assay” value in test [1] is 1.1e-05 mg/ml of IgG (amount required to inhibit 1 ng of TG2). Also, the binding result with rat TG2 and with mouse TG2 was “binds” throughout.
